Legend:
[1] = target: kinesin family member C1 (KIFC1) (human) (UniProt Q9BW19); test: affinity purification with mass spectrometry; anti-KIFC1 antibody (Abcam ab172620) crosslinked to magnetic beads; nuclear lysate of MDA-MB-468 (AA) cells; LC-MS/MS of the eluate
[2] = target: kinesin family member C1 (KIFC1) (human) (UniProt Q9BW19)
[3] = target: kinesin family member C1 (KIFC1) (human) (UniProt Q9BW19); test: affinity purification with mass spectrometry; anti-KIFC1 antibody (Abcam ab172620) crosslinked to magnetic beads; nuclear lysate of HCC1806 (AA) cells; LC-MS/MS of the eluate

Chain of UniProt Q9BW19 (Q9BW19 whole entry): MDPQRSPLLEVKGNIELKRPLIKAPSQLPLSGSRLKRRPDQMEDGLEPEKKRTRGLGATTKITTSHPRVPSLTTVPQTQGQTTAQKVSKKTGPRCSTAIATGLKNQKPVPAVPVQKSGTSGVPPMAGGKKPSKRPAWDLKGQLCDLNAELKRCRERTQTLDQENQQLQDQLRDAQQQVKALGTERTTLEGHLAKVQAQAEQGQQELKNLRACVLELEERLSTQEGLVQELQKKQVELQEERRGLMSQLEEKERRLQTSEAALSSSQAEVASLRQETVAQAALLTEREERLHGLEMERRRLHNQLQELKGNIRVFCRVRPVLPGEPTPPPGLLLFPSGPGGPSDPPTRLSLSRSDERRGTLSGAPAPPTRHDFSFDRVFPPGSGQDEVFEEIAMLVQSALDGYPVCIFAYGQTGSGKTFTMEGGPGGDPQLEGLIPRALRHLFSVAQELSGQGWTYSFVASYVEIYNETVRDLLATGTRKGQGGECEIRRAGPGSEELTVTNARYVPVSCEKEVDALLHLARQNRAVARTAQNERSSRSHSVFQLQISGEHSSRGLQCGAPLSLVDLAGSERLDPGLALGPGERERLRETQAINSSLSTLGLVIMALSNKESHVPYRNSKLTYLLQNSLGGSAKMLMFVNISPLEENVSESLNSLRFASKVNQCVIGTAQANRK

relative abundance of MYH9 in the nKIFC1 immunoprecipitate, fold over MDA-MB-231 [1]: 1.8 fold | BrdU cell proliferation of AA TNBC cells treated with CW069 + blebbistatin [2]: 1.5 fold | relative abundance of MYH9 in the nKIFC1 immunoprecipitate, fold over MDA-MB-231 [3]: 1.6 fold
Substance: myosin heavy chain 9 (MYH9) (from UniProt P35579 1-1960) (natural protein)
